According to article PMC6435357:
Read-outs that look alike come from different tables or passages of the source.

For Env (BG505.T332N): N197S and N197T, the other (N-glycosylation at N195) was “decreases”.

In the case of Env (LAI): D113N, the other (N-glycosylation at N113) is reported as “no change”.

For Env (LAI): N197S/T, the other (N-glycosylation at N197) was “no change”.
